Patent publication US20130236944A1, “METHODS FOR THE INACTIVATION OF ANTIBIOTICS” (priority 2011, published 2013)

Experiment: Inactivation of amoxicillin by lipases
Format: biochemical, Bacillus subtilis
Conditions: in 168 h, antibiotic 5.15 μg/, approximately 20° C.
Experimental: The plates are incubated 18 hours at 37° C.
In this example, the indicator bacterial strains sensitive to beta-lactam antibiotics (e.g. amoxicillin) and macrolide antibiotics were Bacillus subtilis (CIP 52.62) and Micrococcus luteus (CIP 53.45) respectively. All inactivation studies were performed with final antibiotic concentrations of 5.15 μg/. Lipases were used at final concentrations of 2.5 mg/mL (referred as ‘High concentration’) and 0.5 mg/mL (referred as ‘Low concentration’); they were obtained from Codexis.

B1: Lipase from Pseudomonas cepacia P1: Lipase from Pseudomonas cepacia (also called Bulkholderia cepacia) P1, obtained from Codexis (protein, UniProt P22088 45-364, looked up)
Triacylglycerol lipase: AAGYAATRYPIILVHGLSGTDKYAGVLEYWYGIQEDLQQNGATVYVANLSGFQSDDGPNGRGEQLLAYVKTVLAATGATKVNLVGHSQGGLSSRYVAAVAPDLVASVTTIGTPHRGSEFADFVQDVLAYDPTGLSSSVIAAFVNVFGILTSSSHNTNQDALAALQTLTTARAATYNQNYPSAGLGAPGSCQTGAPTETVGGNTHLLYSWAGTAIQPTLSVFGVTGATDTSTLPLVDPANVLDLSTLALFGTGTVMINRGSGQNDGLVSKCSALYGKVLSTSYKWNHLDEINQLLGVRGAYAEDPVAVIRTHANRLKLAGV
- Amoxicillin inactivation (enzyme H (High concentration, 2.5 mg/mL)): +++ in 168 h (100% inactivation = the residual concentration of antibiotic is smaller than the limit of detection of the microbiological test)
- Amoxicillin inactivation (enzyme L (Low concentration, 0.5 mg/mL)): +++ in 168 h (100% inactivation = the residual concentration of antibiotic is smaller than the limit of detection of the microbiological test)
